The target of the assay is native H3 (human (endogenous in HeLa)) (UniProt P68431). Kind of assay: co-IP; native (unfixed) ChIP on mono-nucleosomes: native CpA from untransfected HeLa, GFP-CpA and HA-CpA from transfected HeLa, Western for H1.5 (three antibodies) and H2A; H3 ChIP done sequentially after the native CpA ChIP.

In the case of “linker histone H1.5 (from UniProt P16401 1-226) (natural protein)”, the fold affinity against native CpA came out at 13 fold.

For the origin of these results see paper PMC11145777.
